From paper PMC12041213 (Nature Communications, 2025)

Columns and labels:
Experiment in all cases: co-IP
[1] = molecular target: T1, His-Ash1 phosphorylated by Tpk2-CBP (S. cerevisiae, UniProt P34233 1-588, phosphorylated by Tpk2-CBP at S149 and S388)
T1 sequence (looked up): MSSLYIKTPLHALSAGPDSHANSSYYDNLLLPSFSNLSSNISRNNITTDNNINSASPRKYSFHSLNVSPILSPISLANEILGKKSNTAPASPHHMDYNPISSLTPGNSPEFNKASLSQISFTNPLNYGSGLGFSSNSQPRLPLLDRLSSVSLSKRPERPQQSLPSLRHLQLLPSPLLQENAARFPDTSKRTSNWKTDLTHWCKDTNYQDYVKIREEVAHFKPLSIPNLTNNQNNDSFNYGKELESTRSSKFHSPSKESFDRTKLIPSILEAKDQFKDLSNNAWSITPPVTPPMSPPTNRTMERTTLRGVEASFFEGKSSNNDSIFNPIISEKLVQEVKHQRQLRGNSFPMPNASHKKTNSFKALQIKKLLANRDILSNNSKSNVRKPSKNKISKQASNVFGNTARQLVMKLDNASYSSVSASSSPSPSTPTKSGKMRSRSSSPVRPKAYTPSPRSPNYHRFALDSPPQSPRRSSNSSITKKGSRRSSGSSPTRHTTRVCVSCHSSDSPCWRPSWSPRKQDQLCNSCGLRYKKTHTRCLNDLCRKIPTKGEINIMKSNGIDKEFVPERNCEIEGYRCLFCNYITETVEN

[2] = molecular target: T2, His-Ash1 (purified recombinant) (S. cerevisiae, UniProt P34233 1-588)
T2 sequence (looked up): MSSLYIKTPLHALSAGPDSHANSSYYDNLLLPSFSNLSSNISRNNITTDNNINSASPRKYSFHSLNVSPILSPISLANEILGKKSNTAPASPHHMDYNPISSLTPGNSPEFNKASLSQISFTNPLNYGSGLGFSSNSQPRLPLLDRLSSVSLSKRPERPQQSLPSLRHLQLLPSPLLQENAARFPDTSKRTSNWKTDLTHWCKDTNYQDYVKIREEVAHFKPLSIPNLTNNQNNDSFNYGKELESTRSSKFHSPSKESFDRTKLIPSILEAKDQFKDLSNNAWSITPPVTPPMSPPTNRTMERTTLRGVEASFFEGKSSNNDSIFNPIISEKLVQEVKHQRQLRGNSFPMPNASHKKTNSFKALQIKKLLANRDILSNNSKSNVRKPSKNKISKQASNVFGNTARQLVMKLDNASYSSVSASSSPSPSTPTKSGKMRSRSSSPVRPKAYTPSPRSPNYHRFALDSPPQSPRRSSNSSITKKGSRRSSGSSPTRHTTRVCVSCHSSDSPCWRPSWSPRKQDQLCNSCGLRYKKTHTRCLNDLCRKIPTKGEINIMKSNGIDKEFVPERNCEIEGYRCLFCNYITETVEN

[3] = molecular target: T3, His-Ash1-2SA (Ash1-S149A S388A) (S. cerevisiae, UniProt P34233 1-588, S149A | S388A)
T3 sequence (looked up): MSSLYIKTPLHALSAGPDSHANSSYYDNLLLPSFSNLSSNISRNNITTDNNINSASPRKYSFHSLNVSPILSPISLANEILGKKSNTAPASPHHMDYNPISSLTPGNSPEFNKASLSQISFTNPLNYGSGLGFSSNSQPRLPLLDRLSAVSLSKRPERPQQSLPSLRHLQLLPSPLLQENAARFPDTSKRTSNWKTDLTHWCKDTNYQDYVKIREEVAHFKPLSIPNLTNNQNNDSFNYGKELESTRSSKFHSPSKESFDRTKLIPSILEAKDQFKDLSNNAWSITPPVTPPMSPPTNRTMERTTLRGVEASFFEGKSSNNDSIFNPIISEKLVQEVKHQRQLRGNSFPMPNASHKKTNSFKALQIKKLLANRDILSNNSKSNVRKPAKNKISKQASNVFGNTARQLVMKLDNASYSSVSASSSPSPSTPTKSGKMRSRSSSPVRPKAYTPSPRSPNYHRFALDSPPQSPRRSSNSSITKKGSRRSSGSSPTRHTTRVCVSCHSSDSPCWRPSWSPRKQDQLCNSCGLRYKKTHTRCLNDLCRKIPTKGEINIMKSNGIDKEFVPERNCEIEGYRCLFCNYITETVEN

Measured: binding result

B1: Ubp8-FLAG (purified recombinant) (enzyme, S. cerevisiae, UniProt P50102 1-471, looked up)
chain: MSICPHIQQVFQNEKSKDGVLKTCNAARYILNHSVPKEKFLNTMKCGTCHEINSGATFMCLQCGFCGCWNHSHFLSHSKQIGHIFGINSNNGLLFCFKCEDYIGNIDLINDAILAKYWDDVCTKTMVPSMERRDGLSGLINMGSTCFMSSILQCLIHNPYFIRHSMSQIHSNNCKVRSPDKCFSCALDKIVHELYGALNTKQASSSSTSTNRQTGFIYLLTCAWKINQNLAGYSQQDAHEFWQFIINQIHQSYVLDLPNAKEVSRANNKQCECIVHTVFEGSLESSIVCPGCQNNSKTTIDPFLDLSLDIKDKKKLYECLDSFHKKEQLKDFNYHCGECNSTQDAIKQLGIHKLPSVLVLQLKRFEHLLNGSNRKLDDFIEFPTYLNMKNYCSTKEKDKHSENGKVPDIIYELIGIVSHKGTVNEGHYIAFCKISGGQWFKFNDSMVSSISQEEVLKEQAYLLFYTIRQVN
binds: all assays above
